Laboratory results reported in patent US20160068605A1 (Janssen / Centocor, published 2016).

Molecular target: T1, sp2 isoform of human CD123 ECD with C-terminal 8xHis tag (crystallography) (human, UniProt P26951 101-303)
T1 construct: expressed in baculovirus-infected insect cells; also called CD123 sp2; CD123 SP2 ECD
T1 sequence: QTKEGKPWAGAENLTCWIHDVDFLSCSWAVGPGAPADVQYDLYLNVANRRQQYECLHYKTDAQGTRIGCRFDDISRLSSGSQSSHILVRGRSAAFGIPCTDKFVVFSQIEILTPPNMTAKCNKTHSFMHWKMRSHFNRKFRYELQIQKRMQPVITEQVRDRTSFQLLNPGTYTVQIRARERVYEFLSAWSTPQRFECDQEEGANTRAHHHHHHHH
Experiment: size-exclusion chromatography of the mixed proteins
Method: The protein was concentrated to 18 mg/mL in 20 mM HEPES, pH 7.5, 100 mM NaCl.

- binding result: binds
B1: single-chain Fv fragment of anti-CD123 mAb I3RB18 (scFv)
scFv: EIVLTQSPGTLSLSPGERATLSCRASQSVSSSYLAWYQQKPGQAPRLLIYGASSRATGIPDRFSGSGSGTDFTLTISRLEPEDFAVYYCQQDYGFPWTFGQGTKVEIKGGGGSGGGGSGGGGSGGGGSEVQLVQSGAEVKKPGESLKISCKGSGYSFTSYWISWVRQMPGKGLEWMGIIDPSDSDTRYSPSFQGQVTISADKSISTAYLQWSSLKASDTAMYYCARGDGSTDLDYWGQGTLVTVSSGHHHHHH
notes: form VL-(Gly4Ser)4-VH-Gly-His6, expressed in HEK293 Expi cells; also called I3RB18 scFv; I3RB18 derived scFv
